Non-standard residues stand in square brackets, D forms with d. No end group written: not given here. *: point of attachment. FITC = O=C1OC2(c3ccc(O)cc3Oc3cc(O)ccc32)c2ccc(NC(=S)*)cc21; pS = N[C@@H](COP(=O)(O)O)C(=O)O; Ahx = NCCCCCC(=O)O
T1: ERERERER backbone with Tyr at position 1
T1 peptide: {FITC-Ahx}-YRERERER

T2: CPSF6 D23-4Glu peptide (human, UniProt Q16630 509-528, K510E | R512E | R522E | R524E, FITC-Ahx label)
T2 peptide: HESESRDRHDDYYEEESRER

T3: CPSF6 D2P-D3 peptide (human, UniProt Q16630 509-528)
T3 peptide: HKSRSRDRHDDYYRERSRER

B1: D3P peptide with Glu for Tyr at position 1 (ERERERER backbone with phosphoserine at position 5) (peptide)
peptide: {FITC-Ahx}-ERER[pS]RER
B2: transportin 3 (TNPO3) (natural protein)
chain: MEGAKPTLQLVYQAVQALYHDPDPSGKERASFWLGELQRSVHAWEISDQLLQIRQDVESCYFAAQTMKMKIQTSFYELPTDSHASLRDSLLTHIQNLKDLSPVIVTQLALAIADLALQMPSWKGCVQTLVEKYSNDVTSLPFLLEILTVLPEEVHSRSLRIGANRRTEIIEDLAFYSSTVVSLLMTCVEKAGTDEKMLMKVFRCLGSWFNLGVLDSNFMANNKLLALLFEVLQQDKTSSNLHEAASDCVCSALYAIENVETNLPLAMQLFQGVLTLETAYHMAVAREDLDKVLNYCRIFTELCETFLEKIVCTPGQGLGDLRTLELLLICAGHPQYEVVEISFNFWYRLGEHLYKTNDEVIHGIFKAYIQRLLHALARHCQLEPDHEGVPEETDDFGEFRMRVSDLVKDLIFLIGSMECFAQLYSTLKEGNPPWEVTEAVLFIMAAIAKSVDPENNPTLVEVLEGVVRLPETVHTAVRYTSIELVGEMSEVVDRNPQFLDPVLGYLMKGLCEKPLASAAAKAIHNICSVCRDHMAQHFNGLLEIARSLDSFLLSPEAAVGLLKGTALVLARLPLDKITECLSELCSVQVMALKKLLSQEPSNGISSDPTVFLDRLAVIFRHTNPIVENGQTHPCQKVIQEIWPVLSETLNKHRADNRIVERCCRCLRFAVRCVGKGSAALLQPLVTQMVNVYHVHQHSCFLYLGSILVDEYGMEEGCRQGLLDMLQALCIPTFQLLEQQNGLQNHPDTVDDLFRLATRFIQRSPVTLLRSQVVIPILQWAIASTTLDHRDANCSVMRFLRDLIHTGVANDHEEDFELRKELIGQVMNQLGQQLVSQLLHTCCFCLPPYTLPDVAEVLWEIMQVDRPTFCRWLENSLKGLPKETTVGAVTVTHKQLTDFHKQVTSAEECKQVCWALRDFTRLFR

How the values were obtained:
TNPO3 = TNPO3 (UniProt Q9Y5L0); assay: fluorescence polarisation titration; conditions: reference: unmodified D23 peptide
transportin 3 (TNPO3) = target: B2; assay: fluorescence polarisation
[1] = target: CPSF6 D1 peptide (unmodified 8-mer) (human); assay: fluorescence polarisation
[2] = target: CPSF6 D2 peptide (unmodified 8-mer) (human); assay: fluorescence polarisation
[3] = target: ER/S peptide (D3 peptide with Glu for Tyr at position 1) (human) (UniProt Q16630); assay: fluorescence polarisation
[4] = target: SRSF1 RS peptide (unmodified 8-mer); assay: fluorescence polarisation
[5] = target: SRSF1 RSP peptide (phosphorylated 8-mer); assay: fluorescence polarisation
[6] = target: B1; assay: fluorescence polarisation
[7] = target: T1, ERERERER backbone with Tyr at position 1; assay: fluorescence polarisation
CPSF6 D23-4Glu peptide = target: T2, CPSF6 D23-4Glu peptide; assay: fluorescence polarisation
CPSF6 D2P-D3 peptide = target: T3, CPSF6 D2P-D3 peptide; assay: fluorescence polarisation
[8] = target: GST-RSLD-WT, non-phosphorylated (expressed without CLK1) (human); assay: pull-down
Sequence of GST-RSLD-WT, non-phosphorylated (expressed without CLK1) (human) (Q16630 whole entry): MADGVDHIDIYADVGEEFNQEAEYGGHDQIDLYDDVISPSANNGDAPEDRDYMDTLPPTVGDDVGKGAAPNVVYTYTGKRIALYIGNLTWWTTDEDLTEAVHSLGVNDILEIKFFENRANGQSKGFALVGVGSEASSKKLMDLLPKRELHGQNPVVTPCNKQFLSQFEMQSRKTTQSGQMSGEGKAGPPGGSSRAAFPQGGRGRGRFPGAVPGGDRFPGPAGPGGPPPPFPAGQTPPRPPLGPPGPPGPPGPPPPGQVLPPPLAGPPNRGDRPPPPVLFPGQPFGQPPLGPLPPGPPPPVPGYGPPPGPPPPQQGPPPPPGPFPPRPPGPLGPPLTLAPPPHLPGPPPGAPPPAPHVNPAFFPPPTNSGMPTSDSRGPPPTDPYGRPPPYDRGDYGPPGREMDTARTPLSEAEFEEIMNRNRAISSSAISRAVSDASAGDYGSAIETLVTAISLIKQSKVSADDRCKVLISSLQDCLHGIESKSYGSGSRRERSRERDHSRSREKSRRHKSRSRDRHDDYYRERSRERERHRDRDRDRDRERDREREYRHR

Sequence of ER/S peptide (D3 peptide with Glu for Tyr at position 1) (human) (Q16630 whole entry, looked up, tested part not stated): as the sequence (Q16630 whole entry) above

In the case of “CPSF6 D2-D3 region 20-mer (D23) (from UniProt Q16630) D2P-D3 peptide”, the fold change (TNPO3; sites S511,S513) is reported as “stronger”.

For “CPSF6 D2-D3 region 20-mer (D23) (from UniProt Q16630) D2-D3P peptide”, the fold change (TNPO3; sites S525) was “stronger”.

“CPSF6 D2-D3 region 20-mer (D23) (from UniProt Q16630) D2P-D3P peptide” was tested, and the fold change (TNPO3; sites S511,S513,S525) was “stronger”.

Molecule B1 has a Kd (transportin 3 (TNPO3)) of 17.1 µM.

For B2, the Kd [1] was 141 µM, the Kd [2] was greater than 1000 µM and the Kd [3] was greater than 1000 µM. The Kd [4] was greater than 1000 µM, the Kd [5] was 1.3 µM and the “fold increase of affinity against the ERERERER backbone” value [6] was roughly 5 fold. The “fold increase of affinity against the ERERERER backbone” value [7] was roughly 10 fold, the “fold reduction of affinity against the D23 peptide” value (CPSF6 D23-4Glu peptide) was roughly 25 fold and the “fold increase of affinity against the D23 peptide” value (CPSF6 D2P-D3 peptide) was roughly 3.3 fold. It also gave a percent of input TNPO3 recovered [8] of 30%.

Source: article PMC6511849 (Nucleic Acids Research, 2019)
